Test [1] addresses T1, recombinant human RSPO3 protein, biotinylated (captured on streptavidin-coated chips) (human, UniProt Q9BXY4 22-272, limits assumed, biotinylated (sites not given)).
T1 sequence: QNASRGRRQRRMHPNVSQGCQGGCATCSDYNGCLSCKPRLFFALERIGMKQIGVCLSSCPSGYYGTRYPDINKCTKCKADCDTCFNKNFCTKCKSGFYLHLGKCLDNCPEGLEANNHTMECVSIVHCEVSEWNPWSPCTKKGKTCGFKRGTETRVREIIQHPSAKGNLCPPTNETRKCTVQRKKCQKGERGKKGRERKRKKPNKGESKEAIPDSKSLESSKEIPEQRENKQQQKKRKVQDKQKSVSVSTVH
Nature of the test: summary of Example 3 (SPR, Biacore 2000). As to the method: The antibodies were serially diluted 2-fold from 100 nM to 0.78 nM in HBS-P (0.01M HEPES pH 7.4, 0.15M NaCl, 0.005% v/v Surfactant P20) and were injected over the chip surface. Kinetic data were collected over time and were fit using the simultaneous global fit equation to yield affinity constants (KD values) for each antibody.

For test [2], the target named is T2, LGR5-Fc fusion protein (mature form containing amino acids 22-564 of human LGR5 fused to human Fc) (human, UniProt O75473 22-564).
T2 construct: range 22-564; Expressed in insect cells (baculovirus) and purified by protein A; also called soluble LGR5-Fc; not shown: human Fc
T2 sequence (looked up): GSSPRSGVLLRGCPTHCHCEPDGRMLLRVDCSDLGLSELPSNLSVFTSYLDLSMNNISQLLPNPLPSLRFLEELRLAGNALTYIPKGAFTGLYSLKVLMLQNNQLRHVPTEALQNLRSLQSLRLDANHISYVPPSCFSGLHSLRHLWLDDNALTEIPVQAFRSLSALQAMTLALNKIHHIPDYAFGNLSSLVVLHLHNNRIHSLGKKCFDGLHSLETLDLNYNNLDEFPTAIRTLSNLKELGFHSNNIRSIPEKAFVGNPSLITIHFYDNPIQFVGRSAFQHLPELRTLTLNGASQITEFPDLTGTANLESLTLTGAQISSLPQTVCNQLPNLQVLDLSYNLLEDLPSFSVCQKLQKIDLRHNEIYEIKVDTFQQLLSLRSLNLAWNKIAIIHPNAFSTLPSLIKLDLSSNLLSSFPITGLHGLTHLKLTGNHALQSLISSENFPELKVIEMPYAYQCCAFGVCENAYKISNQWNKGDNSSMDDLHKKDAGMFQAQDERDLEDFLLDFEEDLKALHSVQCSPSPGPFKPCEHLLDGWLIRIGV
Nature of the test: SPR (Biacore 2000): RSPO-Fc immobilised on CM5 chip, soluble LGR5-Fc injected 100 nM to 0.78 nM. As for the experimental part:
Binding affinities between RSPO proteins and LGR5 were analyzed by surface plasmon resonance. A soluble LGR5-Fc construct was generated using standard recombinant DNA techniques. Specifically, amino acids 1-564 of human LGR5 were ligated in frame to human Fc and the recombinant LGR5-Fc fusion protein was expressed in insect cells using baculovirus. The LGR5-Fc fusion protein was purified from the insect medium using protein A chromatography. Cleavage of the LGR5 signal sequence results in a mature LGR5-Fc fusion protein containing amino acids 22-564 of LGR5. […] Two-fold dilutions of soluble LGR5-Fc were injected over the chip surface (100 nM to 0.78 nM). Kinetic data were collected over time using a Biacore 2000 system from Biacore Life Sciences (GE Healthcare) and the data were fit using the simultaneous global fit equation to yield affinity constants (KD values) for each RSPO protein (Table 3).
(SPR reads the build-up and loss of mass on a sensor chip optically.)

The results in this text go back to patent publication US20170267776A1 (published 2017).

What is called Kd is the equilibrium constant for the complex coming apart.

Numbering of substitutions follows the chain as printed.

B1: anti-RSPO3 antibody 131R002 (IgG2) (antibody, V domains shown)
VH: QVQLQESGPELVKPGASVKISCKASGYTFTDYSIHWVKQNHGKSLDWIGYIYPSNGDSGYNQKFKNRATLTVDTSSSTAYLEVRRLTFEDSAVYYCATYFANYFDYWGQGTTLTVSS
VL: DIVLTQSPASLAVSLGQRATISCKASQSVDYDGDSYMNWYQQKPGQPPKLLIYAASNLESGIPARFSGSGSGTDFTLNIHPVEEEDAATYYCQQSNEDPLTFGAGTKLELKR
For the molecule B1, the equilibrium dissociation constant (Kd) in test [1] was less than 10 nM.

B2: anti-RSPO3 antibody 131R003 (IgG2) (antibody, V domains shown)
VH: B1 VH with Q5K, E6Q, S76Y
VL: B1 VL
notes: also called parental 131R003
On to B2, for which the equilibrium dissociation constant (Kd) in test [1] is less than 10 nM.

B3: RSPO4-Fc fusion protein (full-length human RSPO4 ligated in-frame to a human Fc region) (Fc fusion, UniProt Q2I0M5 20-234, looked up)
chain: LNRRKKQVGTGLGGNCTGCIICSEENGCSTCQQRLFLFIRREGIRQYGKCLHDCPPGYFGIRGQEVNRCKKCGATCESCFSQDFCIRCKRQFYLYKGKCLPTCPPGTLAHQNTRECQGECELGPWGGWSPCTHNGKTCGSAWGLESRVREAGRAGHEEAATCQVLSESRKCPIQRPCPGERSPGQKKGRKDRRPRKDRKLDRRLDVRPRQPGLQP
notes: not shown: human Fc region
As for B3, the dissociation constant Kd in test [2] is 73 nM.
